This note sets out measurements from article PMC7822592, “The half-life of the bone-derived hormone osteocalcin is regulated through O-glycosylation in mice, but not in humans” (eLife, 2020).

In one data set the target is T1, human plasmin (Homo sapiens, UniProt P00747).
T1 construct: different concentration of human plasmin (Sigma); purchased Sigma P1867
The experiment in a line: Plasmin enzymatic assay on OCN in heat-inactivated plasma. The settings on record: for % OCN from initial: heat-inactivated Bglap-/- plasma diluted two times in 100 mM Tris pH 7.5, 50 ng/ml, ELISA; for % OCN from initial / % OCN from initial in plasmin (0.3 U/ml): 2hrs, 37°C; for % OCN from initial in plasmin (0.3 U/ml): inset graph, heat-inactivated Bglap-/- plasma, 50 ng/ml. Type of data set: in vitro ADME. The method, then:
The plasmin enzymatic assay was performed on plasma ex vivo in the presence of non-glycosylated OCN and glycosylated OCN as follows: plasma from Bglap-/- mice was heat-inactivated for 30 min at 56°C, then diluted two times in the enzyme assay buffer containing 100 mM Tris buffer pH 7.5. Non-glycosylated OCN or glycosylated OCN was incubated at 50 ng/ml in the diluted plasma for two hours in the presence of different concentration of human plasmin (Sigma) ranging from 0 to 0.3 U/ml. After two hours, OCN level was measured using total mouse OCN ELISA. Results are represented as percentage of initial concentration of non-glycosylated and glycosylated OCN respectively.

The next data set concerns INS-1 832/3 cells. Nature of the data set: OCN stability in INS-1 832/3 cell culture media. Type of data set: in vitro ADME, rat. The settings on record: 8 hours with INS-1 cells at 37°C, ELISA. The method, then:
The INS-1 832/3 rat insulinoma cell line (Millipore-Sigma) was cultured in RPMI-1640 with 11.1 mM D-glucose, supplemented with 2 mM L-glutamine, 1 mM sodium pyruvate, 10 mM HEPES, 0.05 mM β-mercaptoethanol and 10% FBS ([Hohmeier et al., 2000]). On day 1, cells were plated at 3 × 10^5 cells per well in 12-well plates and on day 5, cells were washed with PBS and incubated with culture media containing 5 mM D-glucose. Twenty-four hours later, cells were washed with PBS and incubated for 4 hr in culture media containing 1% FBS, 5 mM D-glucose and 0.1% BSA. OCN was added for 8 hr before supernatants and cells were harvested. ucOCN and O-gly ucOCN concentration were measured in supernatants by ELISA and cells were lyzed and RNA extracted as described in the material and methods section. Gene expression was analyzed using rat specific primers for Ins1 and Gapdh.

[1] abbreviates: plasmin 0.024 U/ml, replicate 1.
Where [2] appears, read: plasmin 0.024 U/ml, replicate 2.

No end group written: not given here. O‑glycan = not defined here

T1 sequence (P00747 581-810 limits assumed): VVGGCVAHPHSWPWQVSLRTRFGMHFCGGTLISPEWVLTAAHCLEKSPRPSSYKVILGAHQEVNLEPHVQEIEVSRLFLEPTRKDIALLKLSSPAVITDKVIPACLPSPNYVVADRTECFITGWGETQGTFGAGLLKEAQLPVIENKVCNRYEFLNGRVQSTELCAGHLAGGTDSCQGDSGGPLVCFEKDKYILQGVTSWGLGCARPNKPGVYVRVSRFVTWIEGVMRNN
T1 sequence (P00747 97-580 partner limits assumed): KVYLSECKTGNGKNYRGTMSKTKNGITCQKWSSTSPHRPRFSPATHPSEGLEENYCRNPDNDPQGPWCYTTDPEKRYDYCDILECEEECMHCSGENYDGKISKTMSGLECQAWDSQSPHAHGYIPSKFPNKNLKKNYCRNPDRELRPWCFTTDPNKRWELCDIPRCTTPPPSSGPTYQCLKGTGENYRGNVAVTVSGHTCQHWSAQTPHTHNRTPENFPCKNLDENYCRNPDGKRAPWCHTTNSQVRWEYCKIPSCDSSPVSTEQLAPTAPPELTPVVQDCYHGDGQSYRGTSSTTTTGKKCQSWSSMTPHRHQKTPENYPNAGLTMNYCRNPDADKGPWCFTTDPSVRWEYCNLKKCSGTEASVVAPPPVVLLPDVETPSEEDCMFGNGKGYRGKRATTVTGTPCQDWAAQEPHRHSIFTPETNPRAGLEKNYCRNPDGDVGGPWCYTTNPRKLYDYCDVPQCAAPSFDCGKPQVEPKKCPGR

As for “O-gly ucOCN: O-glycosylated uncarboxylated mouse osteocalcin produced and purified from HEK293 as Fc fusion, released by thrombin (YLGASVPS(O‑glycan)PDPLEPTREQCELNPACDELSDQYGLKTAYKRIYGITI; ends and bridges not checked; also: O-glycosylated (HexNAc, Hex, NANA); UniProt P86546 50-95, looked up)”, the “% OCN from initial” value in the data set with human plasmin (plasmin 0 U/ml, replicate 1) worked out at 96.7%; with human plasmin (plasmin 0 U/ml, replicate 2) it was 103.3%; in the data set with human plasmin (setting [1]) it was 81.4%; in the data set with human plasmin (setting [2]), 86.9%; in the data set with human plasmin (plasmin 0.12 U/ml, replicate 1) it was 63.3%; with human plasmin (plasmin 0.12 U/ml, replicate 2), 75.7%. The “% OCN from initial” value in the data set with human plasmin (plasmin 0.3 U/ml, replicate 1) came out at 34.5%; in the data set with human plasmin (plasmin 0.3 U/ml, replicate 2), 40.8%. Besides, the “% OCN from initial in plasmin (0.3 U/ml)” value with human plasmin (replicate 1) came to 34.5%; in the data set with human plasmin (replicate 2), 40.8%; with human plasmin (replicate 3), 32.1%; with human plasmin (replicate 4) it was 27.0%; with human plasmin (replicate 5), 38.6%. In addition, the “OCN in stimulation media” value with INS-1 832/3 cells (replicate 1) was 0.12 ng/mL; with INS-1 832/3 cells (replicate 2), 0.13 ng/mL; with INS-1 832/3 cells (replicate 3), 0.13 ng/mL.

As for “ucOCN: Non-glycosylated uncarboxylated mouse osteocalcin produced in bacteria (YLGASVPSPDPLEPTREQCELNPACDELSDQYGLKTAYKRIYGITI; ends and bridges not checked; cysteine pairing not given here; UniProt P86546 50-95, looked up)”, the “% OCN from initial” value amounted to 91.2% in the data set with human plasmin (plasmin 0 U/ml, replicate 1); 108.8% with human plasmin (plasmin 0 U/ml, replicate 2); 69.0% in the data set with human plasmin (setting [1]); 80.5% with human plasmin (setting [2]); 38.3% in the data set with human plasmin (plasmin 0.12 U/ml, replicate 1); 44.1% with human plasmin (plasmin 0.12 U/ml, replicate 2). The “% OCN from initial” value came to 11.5% with human plasmin (plasmin 0.3 U/ml, replicate 1) and 15.5% with human plasmin (plasmin 0.3 U/ml, replicate 2). The “% OCN from initial in plasmin (0.3 U/ml)” value with human plasmin (replicate 1) is reported as 11.5%; in the data set with human plasmin (replicate 2), 15.5%; in the data set with human plasmin (replicate 3), 12.3%; with human plasmin (replicate 4), 11.4%; with human plasmin (replicate 5), 9.9%. Moreover, the “reduction of concentration by plasmin” value with human plasmin (two hours) is listed as “more than 90%”. Further, the “OCN in stimulation media” value with INS-1 832/3 cells (replicate 1) was found to be 0.037 ng/mL; in the data set with INS-1 832/3 cells (replicate 2), 0.028 ng/mL; in the data set on INS-1 832/3 cells (replicate 3), 0.03 ng/mL.
